This data set deals with the molecule itself. The data set is described as follows: crystal structure; CEP250_(11.4) with three-molar excess of FKBP12 and nine-molar excess of WDB002, ternary complex isolated by SEC; crystals in 0.1 M Hepes 7.0, 0.2 M sodium malonate, 21% PEG 3350. (In gel filtration, larger molecules generally elute earlier.)

These results are taken from publication PMC7382241, “Genomic discovery of an evolutionarily programmed modality for small-molecule targeting of an intractable protein surface” (Proceedings of the National Academy of Sciences of the …, 2020).

As usually defined, the stoichiometry N is a count of units in the complex or per binding partner.

B1: CEP250_(11.4) (residues 2,134 to 2,231) (domain or fragment, human, UniProt Q9BV73 2134-2231, looked up)
chain: MEEQSLKLDSLEPRLQRELERLQAALRQTEAREIEWREKAQDLALSLAQTKASVSSLQEVAMFLQASVLERDSEQQRLQDELELTRRALEKERLHSPG
notes: human CEP250 residues 2,134 to 2,231; forms a homodimeric coiled coil in the crystal; tags not specified in the main text; Tags are in SI Materials and Methods; also called 11.4 kDa degradation product of CEP250; source: E. coli BL21(DE3)pLysS
Take B1: the “stoichiometry N” value came out at 2.
